Assay results from patent US20200223889A1 (Novo Nordisk, published 2020).
Positions of bridges follow the written chain, without caps; N, C: chain ends. Non-standard residues stand in square brackets, D forms with d. Lys(CH2CO2H)2 = N[C@@H](CCCCN(CC(=O)O)CC(=O)O)C(=O)O; Phe(3,4-(OMe)2) = COc1ccc(C[C@H](N)C(=O)O)cc1OC; Ser(ΨH,HPro) = O=C(O)[C@@H]1COCN1; Pen = CC(C)(S)[C@H](N)C(=O)O; Pip = O=C(O)[C@@H]1CCCCN1; Thz = O=C(O)[C@@H]1CSCN1; Aze = O=C(O)[C@@H]1CCN1

Key:
[1] = target: T1, human melanocortin 4 receptor (human, UniProt P32245 1-332); test: cell-based or functional assay
[2] = target: human melanocortin 1 receptor (human, UniProt Q01726 1-317); test: cell-based or functional assay
[3] = target: T1, human melanocortin 4 receptor; test: competition with 125-NDP-α-MSH, BHK human MC4R membranes
Procedure, shortened: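 Competition binding used membranes from BHK cells stably expressing human MC4R with ¹²⁵I-NDP-α-MSH (apx. […] final), compound at 1 μM–0.001 nM. Incubation was 2 h at 25 °C in HEPES pH 7.0 buffer with CaCl₂, MgSO₄, EGTA, Tween 20 and 0.1% HSA or ovalbumin. Filter-bound radioactivity was fitted by non-linear regression.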

Sequence of human melanocortin 1 receptor (Q01726 whole entry): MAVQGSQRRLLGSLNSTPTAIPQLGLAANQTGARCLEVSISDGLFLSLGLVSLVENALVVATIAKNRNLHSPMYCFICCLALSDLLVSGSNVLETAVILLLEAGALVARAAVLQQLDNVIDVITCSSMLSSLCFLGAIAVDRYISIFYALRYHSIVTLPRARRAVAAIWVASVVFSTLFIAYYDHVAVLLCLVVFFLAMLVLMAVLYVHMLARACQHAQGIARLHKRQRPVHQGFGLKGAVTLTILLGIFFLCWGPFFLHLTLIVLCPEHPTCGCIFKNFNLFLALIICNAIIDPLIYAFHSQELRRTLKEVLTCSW
T1 sequence (P32245 whole entry): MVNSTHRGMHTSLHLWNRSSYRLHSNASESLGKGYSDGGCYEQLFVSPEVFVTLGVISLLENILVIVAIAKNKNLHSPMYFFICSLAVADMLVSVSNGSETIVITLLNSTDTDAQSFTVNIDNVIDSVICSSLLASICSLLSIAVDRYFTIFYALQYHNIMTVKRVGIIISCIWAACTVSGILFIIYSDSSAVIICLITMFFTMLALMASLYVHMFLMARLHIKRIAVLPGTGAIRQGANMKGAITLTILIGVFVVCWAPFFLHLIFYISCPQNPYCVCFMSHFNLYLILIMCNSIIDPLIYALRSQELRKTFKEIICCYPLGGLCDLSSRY

B1: Chem. 83 (peptide)
peptide: cyclo(C[Pip]H[dF]HWCAKKKW)
modifications: disulfide 1-7
notes: also called c[c[Cys-PIP-His-D-Phe-His-Trp-Cys]-Ala-Lys-Lys-Lys-Trp]
[1]
  MC4R cAMP EC50: 2.15 nM
[2]
  MC1R cAMP EC50: > 10 nM
[3]
  Ki: 0.17 nM

B2: Chem. 9 (peptide)
peptide: CXHFRWCXHFRW
modifications: Aib 2, 8; D-Phe 4, 10; disulphide Cys1-Cys7; head-to-tail amide Cys1-Trp12
notes: also called c[c[Cys-Aib-His-D-Phe-Arg-Trp-Cys]-Aib-His-D-Phe-Arg-Trp]
[1]
  MC4R cAMP EC50: 0.02 nM
[2]
  MC1R cAMP EC50: 4.02 nM
[3]
  Ki: 0.06 nM

B3: Chem. 105 (peptide)
peptide: cyclo(C[Thz]H[dF]HWCAEEAW)
modifications: disulfide 1-7
SMILES: C[C@@H]1NC(=O)[C@H](CCC(=O)O)NC(=O)[C@H](CCC(=O)O)NC(=O)[C@H](C)NC(=O)[C@@H]2CSSC[C@H](NC(=O)[C@H](Cc3c[nH]c4ccccc34)NC1=O)C(=O)N1CSC[C@H]1C(=O)N[C@@H](Cc1c[nH]cn1)C(=O)N[C@H](Cc1ccccc1)C(=O)N[C@@H](Cc1c[nH]cn1)C(=O)N[C@@H](Cc1c[nH]c3ccccc13)C(=O)N2
notes: also called c[c[Cys-THAZ-His-D-Phe-His-Trp-Cys]-Ala-Glu-Glu-Ala-Trp]
[1]
  MC4R cAMP EC50: 6.62 nM
[2]
  MC1R cAMP EC50: > 100 nM
[3]
  Ki: 43 nM

B4: Chem. 107 (peptide)
peptide: cyclo(C[Thz]H[dF]HWCADEAW)
modifications: disulfide 1-7
SMILES: C[C@@H]1NC(=O)[C@H](CCC(=O)O)NC(=O)[C@H](CC(=O)O)NC(=O)[C@H](C)NC(=O)[C@@H]2CSSC[C@H](NC(=O)[C@H](Cc3c[nH]c4ccccc34)NC1=O)C(=O)N1CSC[C@H]1C(=O)N[C@@H](Cc1c[nH]cn1)C(=O)N[C@H](Cc1ccccc1)C(=O)N[C@@H](Cc1c[nH]cn1)C(=O)N[C@@H](Cc1c[nH]c3ccccc13)C(=O)N2
notes: also called c[c[Cys-THAZ-His-D-Phe-His-Trp-Cys]-Ala-Asp-Glu-Ala-Trp]
[1]
  MC4R cAMP EC50: 10.6 nM
[2]
  MC1R cAMP EC50: > 100 nM
[3]
  Ki: 39.1 nM

B5: Chem. 106 (peptide)
peptide: cyclo(C[Thz]H[dF]HWCADDAW)
modifications: disulfide 1-7
SMILES: C[C@@H]1NC(=O)[C@H](CC(=O)O)NC(=O)[C@H](CC(=O)O)NC(=O)[C@H](C)NC(=O)[C@@H]2CSSC[C@H](NC(=O)[C@H](Cc3c[nH]c4ccccc34)NC1=O)C(=O)N1CSC[C@H]1C(=O)N[C@@H](Cc1c[nH]cn1)C(=O)N[C@H](Cc1ccccc1)C(=O)N[C@@H](Cc1c[nH]cn1)C(=O)N[C@@H](Cc1c[nH]c3ccccc13)C(=O)N2
notes: also called c[c[Cys-THAZ-His-D-Phe-His-Trp-Cys]-Ala-Asp-Asp-Ala-Trp]
[1]
  MC4R cAMP EC50: 10.6 nM
[2]
  MC1R cAMP EC50: > 100 nM
[3]
  Ki: 42.8 nM

B6: Chem. 103 (peptide)
peptide: cyclo(C[Ser(ΨH,HPro)]H[dF]HWCAKKKW)
modifications: disulfide 1-7
SMILES: C[C@@H]1NC(=O)[C@@H]2CSSC[C@H](NC(=O)[C@H](Cc3c[nH]c4ccccc34)NC(=O)[C@H](CCCCN)NC(=O)[C@H](CCCCN)NC(=O)[C@H](CCCCN)NC1=O)C(=O)N1COC[C@H]1C(=O)N[C@@H](Cc1c[nH]cn1)C(=O)N[C@H](Cc1ccccc1)C(=O)N[C@@H](Cc1c[nH]cn1)C(=O)N[C@@H](Cc1c[nH]c3ccccc13)C(=O)N2
notes: also called c[c[Cys-OXA-His-D-Phe-His-Trp-Cys]-Ala-Lys-Lys-Lys-Trp]
[1]
  MC4R cAMP EC50: 0.05 nM
[2]
  MC1R cAMP EC50: > 70 nM
[3]
  Ki: 0.06 nM

B7: Chem. 92 (peptide)
peptide: cyclo([Pen]PH[dF]HWCAKKKR)
modifications: disulfide 1-7
SMILES: C[C@@H]1NC(=O)[C@@H]2CSSC(C)(C)[C@H](NC(=O)[C@H](CCCNC(=N)N)NC(=O)[C@H](CCCCN)NC(=O)[C@H](CCCCN)NC(=O)[C@H](CCCCN)NC1=O)C(=O)N1CCC[C@H]1C(=O)N[C@@H](Cc1c[nH]cn1)C(=O)N[C@H](Cc1ccccc1)C(=O)N[C@@H](Cc1c[nH]cn1)C(=O)N[C@@H](Cc1c[nH]c3ccccc13)C(=O)N2
notes: also called c[c[Pen-Pro-His-D-Phe-His-Trp-Cys]-Ala-Lys-Lys-Lys-Arg]
[1]
  MC4R cAMP EC50: 0.13 nM
[2]
  MC1R cAMP EC50: 47.1 nM
[3]
  Ki: 0.04 nM

B8: Chem. 94 (peptide)
peptide: cyclo(CPH[dF]R[Phe(3,4-(OMe)2)]CAKKKR)
modifications: disulfide 1-7
notes: also called c[c[Cys-Pro-His-D-Phe-Arg-3,4-DiMeO-Phe-Cys]-Ala-Lys-Lys-Lys-Arg]
[1]
  MC4R cAMP EC50: 4.38 nM
[2]
  MC1R cAMP EC50: 113 nM
[3]
  Ki: 0.25 nM

B9: Chem. 104 (peptide)
peptide: cyclo(C[Thz]H[dF]HWCAA[Lys(CH2CO2H)2]AW)
modifications: disulfide 1-7
SMILES: C[C@@H]1NC(=O)[C@H](C)NC(=O)[C@@H]2CSSC[C@H](NC(=O)[C@H](Cc3c[nH]c4ccccc34)NC(=O)[C@H](C)NC(=O)[C@H](CCCCN(CC(=O)O)CC(=O)O)NC1=O)C(=O)N1CSC[C@H]1C(=O)N[C@@H](Cc1c[nH]cn1)C(=O)N[C@H](Cc1ccccc1)C(=O)N[C@@H](Cc1c[nH]cn1)C(=O)N[C@@H](Cc1c[nH]c3ccccc13)C(=O)N2
notes: also called c[c[Cys-THAZ-His-D-Phe-His-Trp-Cys]-Ala-Ala-Lys(CH2COOH)2-Ala-Trp]
[1]
  MC4R cAMP EC50: 0.6 nM
[2]
  MC1R cAMP EC50: > 100 nM
[3]
  Ki: 8.87 nM

B10: Chem. 98 (peptide)
peptide: cyclo(C[dP]H[dF]HWCAKKKW)
modifications: disulfide 1-7
notes: also called c[c[Cys-D-Pro-His-D-Phe-His-Trp-Cys]-Ala-Lys-Lys-Lys-Trp]
[1]
  MC4R cAMP EC50: 2.7 nM
[2]
  MC1R cAMP EC50: > 55 nM
[3]
  Ki: 0.6 nM

B11: Chem. 93 (peptide)
peptide: cyclo(CPH[dF]HW[Pen]AKKKR)
modifications: disulfide 1-7
SMILES: C[C@@H]1NC(=O)[C@H]2NC(=O)[C@H](Cc3c[nH]c4ccccc34)NC(=O)[C@H](Cc3c[nH]cn3)NC(=O)[C@@H](Cc3ccccc3)NC(=O)[C@H](Cc3c[nH]cn3)NC(=O)[C@@H]3CCCN3C(=O)[C@H](CSSC2(C)C)NC(=O)[C@H](CCCNC(=N)N)NC(=O)[C@H](CCCCN)NC(=O)[C@H](CCCCN)NC(=O)[C@H](CCCCN)NC1=O
notes: also called c[c[Cys-Pro-His-D-Phe-His-Trp-Pen]-Ala-Lys-Lys-Lys-Arg]
[1]
  MC4R cAMP EC50: 0.04 nM
[2]
  MC1R cAMP EC50: 18.2 nM
[3]
  Ki: 0.03 nM

B12: Chem. 82 (peptide)
peptide: cyclo(C[Aze]H[dF]HWCAKKKW)
modifications: disulfide 1-7
SMILES: C[C@@H]1NC(=O)[C@@H]2CSSC[C@H](NC(=O)[C@H](Cc3c[nH]c4ccccc34)NC(=O)[C@H](CCCCN)NC(=O)[C@H](CCCCN)NC(=O)[C@H](CCCCN)NC1=O)C(=O)N1CC[C@H]1C(=O)N[C@@H](Cc1c[nH]cn1)C(=O)N[C@H](Cc1ccccc1)C(=O)N[C@@H](Cc1c[nH]cn1)C(=O)N[C@@H](Cc1c[nH]c3ccccc13)C(=O)N2
notes: also called c[c[Cys-AZE-His-D-Phe-His-Trp-Cys]-Ala-Lys-Lys-Lys-Trp]
[1]
  MC4R cAMP EC50: 0.53 nM
[2]
  MC1R cAMP EC50: 94.3 nM
[3]
  Ki: 0.07 nM

B13: Chem. 91 (peptide)
peptide: cyclo(C[Thz]H[dF]HWC[Thz]H[dF]HW)
modifications: disulfide 1-7
SMILES: O=C1N[C@H]2CSSC[C@H](NC(=O)[C@H](Cc3c[nH]c4ccccc34)NC(=O)[C@H](Cc3c[nH]cn3)NC(=O)[C@@H](Cc3ccccc3)NC(=O)[C@H](Cc3c[nH]cn3)NC(=O)[C@@H]3CSCN3C2=O)C(=O)N2CSC[C@H]2C(=O)N[C@@H](Cc2c[nH]cn2)C(=O)N[C@H](Cc2ccccc2)C(=O)N[C@@H](Cc2c[nH]cn2)C(=O)N[C@H]1Cc1c[nH]c2ccccc12
notes: also called c[c[Cys-THAZ-His-D-Phe-His-Trp-Cys]-THAZ-His-D-Phe-His-Trp]
[1]
  MC4R cAMP EC50: 0.71 nM
[2]
  MC1R cAMP EC50: > 10 nM
[3]
  Ki: 0.51 nM
